Broadly, the EC50 is the concentration giving half of the maximal effect. Lower therefore signals a more potent agent.

B1: chimeric antibody 223F12C4 (human IgG1) (antibody, V domains shown)
VH: QVQLQQSGAELVKPGASVKVSCKASGYSFTSYWIHWVKQRPGQGLEWIGRIHPSDGDIDHNEKFKGKATLTVDKSSSTAYMQLTSLTSEDSAVYYCLCYIMDYWGQGTSVTVSS
VL: DIQMNQSPSSLSASLGDTIAITCHASQNINVWLSWYQQKPGNIPKLLIYKAAKLQTGVPSRFSGSGSGTGFTLTISSLQPEDIATYYCHQGQDYPLTFGAGTKLELKR
B2: chimeric antibody 274C7H2 (human IgG1) (antibody, V domains shown)
VH: QVQLQQSGAELAKPGASVKLSCKASGYTFTSYWMHWVKQRPGQGLEWIGYINPSSGYTKYNQKFKDKATLTADKSSSTAYMQLSSLTYEDSAVYYCARNPSYDYYAMDYWGQGTSVTVSS
VL: QAVVTQESALTTSPGETVTLTCRSSTGAVTTSNYANWVQEKPDHLFTGLIGGTNNRAPGVPARFSGSLIGDKAALTITGAQTEDEAIYFCALWYSNHFIFGSGTKVTVLR
B3: chimeric antibody 45F1F3 (human IgG1) (antibody, V domains shown)
VH: DVQLQESGPGLVKPSQSLSLTCTVTGYSITIDYAWNWIRQFPGNKLEWMGYISNSGYTSYNPSLKSRISFTRDTSKNQFFLQLNSVTPEDSATYYCTRSGHYDLFDYWGQGTTLTVSS
VL: DVVMTQAPLTLSVTIGQPASISCKSSQSLFDRDGKTYLSWLLERPGQSPKRLIYLVSNLDSGVPDRFTGSGSGTDFTLKISRVEAEDLGVYYCWQGTHFPYTFGGGTKVEMKR
B4: chimeric antibody 225A8D9 (human IgG1) (antibody, V domains shown)
VH: QVQLQQSGPELVKPGASVKISCKASGYAFSSSWMNWVKQRPGKGLEWIGRIYPGDGNINYDGKFKGEATLTADKSSSTAYIQLSSLTSEDSAVYFCARSAWLGKTYVMDYWGQGTSVTVSS
VL: EIVVTQSPAITAASLGQKVTITCSASSSVTYMNWYQQKSGTSPKPWIYEISKLASGVPAHFSGSGSGTSYSLTISSLEAEDAAIYYCQQWNFPFTFGSGTKVEIRR
B5: chimeric antibody 204C10G12 (human IgG1) (antibody, V domains shown)
VH: QVQLQQPGAELVKPGASVKMSCKASGYTFTSYWITWVKQRPGQGLEWIGDIYPGSDSTNYNEKFKNKATLTVDTSSSTAYMQLSSLTSEDSAVYYCARGDDFWYFDVWGTGTTVTVSS
VL: DVLMTQTPLSLPVSLGDQASISCRSSQSIVHSNGNTYLEWYLQKPGQSPKLLIYKVSNRFSGVPDRFSGSGSGTDFTLKISRVEAEDLGVYYCFQGSHVPLTFGAGTKLELKR
B6: chimeric antibody 225H7D12 (human IgG1) (antibody, V domains shown)
VH: QVQLQQSGAEVMKPGASVKLSCKTTGYRFTGYWIEWVKQRPGHGLEWIGEILPGSGVSNNNEKFRDKATFTADTSSNTAYIQLSSLTTDDSAIYYCARKASYYTMDYWGQGTSVTVSS
VL: QIVLTQSPAIMSASLGERVTMTCTASSSVSSFYFHWYQQKPGSSPKLWIYSISNLASGVPTRFSGSGSGTSYSLTISSMEAEDAATYYCHQYHRSPRTFGGGTKLEIKR
B7: chimeric antibody 384H3H11 (human IgG1) (antibody, V domains shown)
VH: QVQLKQSGPGLVQPSQSLSITCTVSGFSLTSYGVHWVRQSPGKGLEWLGVIWSGGSTDYNAAFISRLSISKDNSKSQVFFKMNSLQANDTAIYYCARIGLRSFAYWGQGTLVTVSA
VL: DIVMTQSPSSLTVTAGEKVTMSCKSSQSLLNSGNQKNYLTWYQQKPGQPPKLLIYWASTRESGVPDRFTGSGSGTDFTLTISSVQAEDLAVYYCQNDYSYPFTFGSGTKLEIKR
B8: chimeric antibody 172H7B9(H-La) (human IgG1) (antibody, V domains shown)
VH: QVTLKESGPGILQSSQTLSLTCSFSGFSLSPSGMGVTWIRQPSGKGLEWLAHIYWDDVKRYNPSLKSRLTISKDTSRNQVFLKITGVDTADTATYYCARRGSYSDYGGWSFDVWGTGTTVTVSS
VL: DIVMTQSPSSLSVSAGEKVTMSCKSSQSLFNSGNQKNYLAWYQQKPGQPPKLLIYGASTRESGVPDRFTGSGSGSDFTLTISSVQAEDLAVYYCQNDHSYPPTFGSGTKLEIKR
B9: humanized antibody 225H7D12 VH1.1 + VL1.2 (antibody, V domains shown)
VH: QVQLVQSGAEVKKPGASVKVSCKTTGYRFTGYWIEWVRQAPGQGLEWIGEILPGSGVSNNNEKFRDRATMTADTSISTAYMELSRLRSDDTAVYYCARKASYYTMDYWGQGTLVTVSS
VL: DIQMTQSPSSLSASVGDRVTITCTASSSVSSFYFHWYQQKPGKAPKLWIYSISNLASGVPSRFSGSGSGTSYTLTISSLQPEDFATYYCHQYHRSPRTFGGGTKLEIK
B10: humanized antibody 225H7D12 VH1.4 + VL1.2 (antibody, V domains shown)
VH: QVQLVQSGAEVKKPGASVKVSCKTTGYRFTGYWIEWVKQAPGQGLEWIGEILPGSGVSNNNEKFRDRATFTADTSINTAYMELSRLRSDDTAVYYCARKASYYTMDYWGQGTLVTVSS
VL: DIQMTQSPSSLSASVGDRVTITCTASSSVSSFYFHWYQQKPGKAPKLWIYSISNLASGVPSRFSGSGSGTSYTLTISSLQPEDFATYYCHQYHRSPRTFGGGTKLEIK
B11: humanized antibody 225H7D12 VH1.3 + VL1.2 (antibody, V domains shown)
VH: QVQLVQSGAEVKKPGASVKVSCKASGYRFTGYWIEWVKQAPGQGLEWIGEILPGSGVSNNNEKFRDRATMTADTSINTAYMELSRLRSDDTAVYYCARKASYYTMDYWGQGTLVTVSS
VL: DIQMTQSPSSLSASVGDRVTITCTASSSVSSFYFHWYQQKPGKAPKLWIYSISNLASGVPSRFSGSGSGTSYTLTISSLQPEDFATYYCHQYHRSPRTFGGGTKLEIK
B12: humanized antibody 45F1F3 VH1.1 + VL1 (antibody, V domains shown)
VH: QVQLQESGPGLVKPSQTLSLTCTVTGYSITIDYAWNWIRQPPGKGLEWIGYISNSGYTSYNPSLKSRVTFSRDTSKNQFSLKLSSVTAADTAVYYCTRSGHYDLFDYWGQGTTVTVSS
VL: DVVMTQSPLSLPVTLGQPASISCKSSQSLFDRDGKTYLSWFQQRPGQSPRRLIYLVSNLDSGVPDRFSGSGSGTDFTLKISRVEAEDVGVYYCWQGTHFPYTFGGGTKVEIK
B13: humanized antibody 45F1F3 VH1.3 + VL1.1 (antibody, V domains shown)
VH: QVQLQESGPGLVKPSQTLSLTCTVTGYSITIDYAWNWIRQPPGKGLEWMGYISNSGYTSYNPSLKSRVTISRDTSKNQFFLKLSSVTAADTAVYYCTRSGHYDLFDYWGQGTTVTVSS
VL: DVVMTQSPLSLPVTLGQPASISCKSSQSLFDRDGKTYLSWLLQRPGQSPRRLIYLVSNLDSGVPDRFSGSGSGTDFTLKISRVEAEDVGVYYCWQGTHFPYTFGGGTKVEIK
B14: humanized antibody 270C5C10 VH1.4 + VL1 (antibody, V domains shown)
VH: QVQLVQSGAEVKKPGASVKVSCKASGYTFTDNYMNWARQSPGQSLEWIGDINPNNGGSRYKEKFKDRATLTVDTSIRTAYMELSRLRSDDTAVYYCANPGSYGFAYWGQGTLVTVSS
VL: DVVMTQSPLSLPVTLGQPASISCKSSQSLLDSDGRTYLNWFQQRPGQSPRRLIYLVSQLDSGVPDRFSGSGSGTDFTLKISRVEAEDVGVYYCWQGTHFPWTFGGGTKLEIK
B15: humanized antibody 45F1F3 VH1.4 + VL1.1 (antibody, V domains shown)
VH: DVQLQESGPGLVKPSQTLSLTCTVTGYSITIDYAWNWIRQPPGKGLEWMGYISNSGYTSYNPSLKSRITFSRDTSKNQFFLKLSSVTAADTAVYYCTRSGHYDLFDYWGQGTTVTVSS
VL: DVVMTQSPLSLPVTLGQPASISCKSSQSLFDRDGKTYLSWLLQRPGQSPRRLIYLVSNLDSGVPDRFSGSGSGTDFTLKISRVEAEDVGVYYCWQGTHFPYTFGGGTKVEIK
B16: humanized antibody 270C5C10 VH1.2 + VL1 (antibody, V domains shown)
VH: QVQLVQSGAEVKKPGASVKVSCKASGYTFTDNYMNWVRQAPGQSLEWIGDINPNNGGSRYKEKFKDRATLTVDTSIRTAYMELSRLRSDDTAVYYCANPGSYGFAYWGQGTLVTVSS
VL: DVVMTQSPLSLPVTLGQPASISCKSSQSLLDSDGRTYLNWFQQRPGQSPRRLIYLVSQLDSGVPDRFSGSGSGTDFTLKISRVEAEDVGVYYCWQGTHFPWTFGGGTKLEIK

For the first experiment, the target named is human GITR expressed on Cho-K1 cells (human) (UniProt Q9Y5U5). Briefly: FACS, chimeric antibody on GITR/Cho-K1 cells, geometric mean, 4-parameter fit. A general note: A flow cytometer gives signals particle by particle.
human GITR expressed on Cho-K1 cells (human), sequence (Q9Y5U5 26-241): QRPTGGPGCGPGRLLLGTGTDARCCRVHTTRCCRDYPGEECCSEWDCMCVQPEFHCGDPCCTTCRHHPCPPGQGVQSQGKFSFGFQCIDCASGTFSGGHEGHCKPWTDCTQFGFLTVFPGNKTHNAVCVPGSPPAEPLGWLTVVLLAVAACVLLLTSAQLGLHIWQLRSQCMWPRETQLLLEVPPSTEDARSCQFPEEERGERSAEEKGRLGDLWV
Molecule B1 registered an EC50 of 1.59 µg/mL. B2 yielded a concentration for a half-maximal effect (EC50) of 331 µg/mL. The molecule B3 registered a concentration for a half-maximal effect (EC50) of 0.0443 µg/mL. This EC50 lies about 7500-fold lower than the previous one. The molecule B4 displayed an EC50 of 0.252 µg/mL. Still for that read-out and setting: for B5 the value was 19400 µg/mL; for B6, 0.0566 µg/mL. As for B7, the EC50 was found to be 219 µg/mL. Same read-out and setting: for B8 the value was 0.0499 µg/mL.

For the next experiment the target is unchanged. Description: FACS binding assay with GITR/Cho-K1, chimeric antibody.
With B3, the EC50 is 0.111 µg/mL. Still for that read-out and setting: for B6 the value was 0.112 µg/mL.

The next experiment shares this target. Briefly: FACS binding assay with GITR/Cho-K1, humanized antibody.
In the case of B9, the EC50 came out at 0.0755 µg/mL. On the same count and under the same terms, for B10 the value was 0.181 µg/mL. As for B11, the EC50 worked out at 0.082 µg/mL. This EC50 is about 2.2-fold lower than that of the molecule before. B12 showed an EC50 of 0.107 µg/mL. The molecule B13 had an EC50 of 0.106 µg/mL. On the same count and under the same terms, for B14 the value was 0.0558 µg/mL. The same measure, in the same setting: for B15 the value was 0.0704 µg/mL; for B16, 0.0424 µg/mL.

(Values after patent US20230064703A1.)
